From PMC5261807 (2017)
Non-standard residues stand in square brackets, D forms with d. No end group written: not given here. Arg(Me2a) = CN(C)C(=N)NCCC[C@H](N)C(=O)O; Lys(Me3) = C[N+](C)(C)CCCC[C@H](N)C(=O)O; Arg(Me2s) = CN=C(NC)NCCC[C@H](N)C(=O)O; pT = C[C@@H](OP(=O)(O)O)[C@H](N)C(=O)O; Lys(Me2) = CN(C)CCCC[C@H](N)C(=O)O; Me2s = symmetric dimethyl (on Arg); pS = N[C@@H](COP(=O)(O)O)C(=O)O; Lys(Me) = CNCCCC[C@H](N)C(=O)O; Me3 = trimethyl (on Lys)

T1: Bdf1 bromodomain 2 (GST-tagged, WT) (Saccharomyces cerevisiae (strain ATCC …, UniProt P35817))
T1 chain: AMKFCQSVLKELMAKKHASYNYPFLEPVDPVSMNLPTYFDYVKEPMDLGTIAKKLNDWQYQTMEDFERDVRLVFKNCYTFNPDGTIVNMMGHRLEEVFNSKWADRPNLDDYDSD

T2: Bdf1 bromodomain 1 (GST-tagged, WT) (Saccharomyces cerevisiae (strain ATCC …, UniProt P35817))
T2 chain: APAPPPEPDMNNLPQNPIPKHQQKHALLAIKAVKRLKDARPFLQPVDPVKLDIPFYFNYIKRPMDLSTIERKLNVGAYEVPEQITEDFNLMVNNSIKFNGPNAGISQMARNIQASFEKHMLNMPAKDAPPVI

B1: c-myc tag (peptide)
chain: EQKLISEEDLA
modifications: histone peptides carry modifications given inline in the sequence and in columns 4-7 (Kac, Kme1/2/3, Rme2a/s, Cit, pS/pT); N-terminus free or acetylated
B2: H2a 1-19 (peptide)
chain: SGRGKQGGKARAKAKSRSS
modifications: histone peptides carry modifications given inline in the sequence and in columns 4-7 (Kac, Kme1/2/3, Rme2a/s, Cit, pS/pT); N-terminus free or acetylated

Target: T1, Bdf1 bromodomain 2 (GST-tagged, WT)
Test: histone peptide array probed with recombinant GST-bromodomain, signal normalised to myc peptide control

Row | binding score | Binder
1 | 0 | A[Arg(Me2a)]T[Lys(Me3)]QTA[Arg(Me2s)][Lys(Me)]STGGKAPRKQ
2 | 0.00541 | ARTKQTA[Arg(Me2s)][Lys(Me2)][pS]TGGKAPRKQ
3 | 0.00148 | ARTKQTARKSTGGKAPRKQ (A R T K Q T A Rme2s Kme3 pS T G G K A P R K Q)
4 | 0.0186 | PDPAK(Ac)SAPAPKK(Ac)GSKKAVT
5 | 0 | A[Arg(Me2s)]T[Lys(Me2)]QTA[Arg(Me2s)][Lys(Me3)]STGGKAPRKQ
6 | 0.00305 | SGRGKGGKGLGKGGAKRHR (pS G R G K G G K G L G K G G A K R H R)
7 | 0.00836 | ARTKQTA[Arg(Me2s)]K(Me)S[pT]GGKAPRKQ
8 | 0.0564 | ARTKQTARKSTGGKAPRKQ (A R T Kme2 Q T A Rme2s Kac S T G G K A P R K Q)
9 | 0 | ARTKQTARKSTGGKAPRKQ (A Rme2s T Kme2 Q T A Rme2a Kme1 S T G G K A P R K Q)
10 | 0.0363 | ARTK(Me3)QTAR(Me2s)K(Ac)STGGKAPRKQ
11 | 0 | ARTKQTARKSTGGKAPRKQ (A R T K Q T A R Kme2 pS T G G K A P R K Q)
12 | 0.131 | ARTKQTARKSTGGKAPRKQ (A Rme2s T Kac Q T A Rme2s Kac S T G G K A P R K Q)
13 | 0.117 | SGRGKQGGK(Ac)ARAK(Ac)AKSRSS
14 | 0 | ARTKQTARKSTGGKAPRKQ (A Rme2s T Kme1 Q T A Rme2s Kme3 S T G G K A P R K Q)
15 | 0.386 | SGRGKGGKGLGKGGAKRHR (S G Rme2a G Kac G G Kac G L G Kac G G A K R H R)
16 | 0 | A[Arg(Me2s)]T[Lys(Me2)]QTAR[Lys(Me3)]STGGKAPRKQ
17 | 0 | PRKQLATKAARK[pS]APATGG [H3 16-35]
18 | 0.00915 | ARTKQTARKSTGGKAPRKQ (A R T Kme1 Q T A Rme2a Kac S T G G K A P R K Q)
19 | 0.00364 | RKSAPATGGVKKPHRYRPG (R K S A P A T G G V Kme1 K P H R Y R P G) [H3 26-45]
20 | 1 | B1

Row | binding score | Binder
21 | 0.258 | SGRGKGGKGLGKGGAKRHR (S G R G K G G Kac G L G Kac G G A K R H R)
22 | 0 | ARTKQTA[Arg(Me2s)][Lys(Me)][pS]TGGKAPRKQ
23 | 0.0141 | B2
24 | 0.299 | SGRGKGGKGLGKGGAKRHR (pS G Rme2s G Kac G G Kac G L G K G G A K R H R)
25 | 0.069 | SGRGKGGKGLGKGGAKRHR (pS G R G Kac G G K G L G K G G A K R H R)
26 | 0.161 | SGRGKGGKGLGKGGAKRHR (S G R G K G G Kac G L G K G G A Kac R H R)
27 | 0.00758 | A[Arg(Me2a)]TK(Ac)QTA[Arg(Me2s)][Lys(Me3)]STGGKAPRKQ
28 | 0.00384 | A[Arg(Me2s)]TK(Ac)QTA[Arg(Me2a)][Lys(Me)]STGGKAPRKQ
29 | 0.231 | [pS]GRGK(Ac)QGGKARAK(Ac)AKSRSS
30 | 0.0869 | ARTKQTARKSTGGKAPRKQ (A Rme2a T Kac Q T A Rme2s Kac S T G G K A P R K Q)
31 | 0 | PDPAK(Ac)SAPAPKKG[pS]KKAVT
32 | 0.00482 | A[Arg(Me2s)]TK(Ac)QTARKSTGGKAPRKQ
33 | 0.00325 | ARTKQTARKSTGGKAPRKQ (A Rme2a T Kme1 Q T A Rme2a Kac S T G G K A P R K Q)
34 | 0 | ARTKQTARKSTGGKAPRKQ (A R T K Q T A R Kme3 S pT G G K A P R K Q)
35 | 0 | ARTKQTARKSTGGKAPRKQ (A Rme2a T Kme2 Q T A R Kme2 S T G G K A P R K Q)
36 | 0 | A[Arg(Me2s)]TK(Me)QTARKSTGGKAPRKQ
37 | 0.0271 | AR[pT]K(Ac)QTARKSTGGKAPRKQ
38 | 0.0733 | ARTKQTARKSTGGK(Ac)APRKQ
39 | 0 | ARTKQTA[Arg(Me2a)]K(Ac)[pS][pT]GGKAPRKQ

Target: T2, Bdf1 bromodomain 1 (GST-tagged, WT)
Test: as above

Row | binding score | Binder
40 | 0 | A[Arg(Me2a)]T[Lys(Me3)]QTA[Arg(Me2s)][Lys(Me)]STGGKAPRKQ
41 | 0.000179 | ARTKQTA[Arg(Me2s)][Lys(Me2)][pS]TGGKAPRKQ
42 | 0.00305 | ARTKQTARKSTGGKAPRKQ (A R T K Q T A Rme2s Kme3 pS T G G K A P R K Q)
43 | 0 | PDPAK(Ac)SAPAPKK(Ac)GSKKAVT
44 | 0 | A[Arg(Me2s)]T[Lys(Me2)]QTA[Arg(Me2s)][Lys(Me3)]STGGKAPRKQ
45 | 0 | SGRGKGGKGLGKGGAKRHR (pS G R G K G G K G L G K G G A K R H R)
46 | 0 | ARTKQTA[Arg(Me2s)]K(Me)S[pT]GGKAPRKQ
47 | 0.0301 | ARTKQTARKSTGGKAPRKQ (A R T Kme2 Q T A Rme2s Kac S T G G K A P R K Q)
48 | 0 | ARTKQTARKSTGGKAPRKQ (A Rme2s T Kme2 Q T A Rme2a Kme1 S T G G K A P R K Q)
49 | 0.0484 | ARTK(Me3)QTAR(Me2s)K(Ac)STGGKAPRKQ
50 | 0.00108 | ARTKQTARKSTGGKAPRKQ (A R T K Q T A R Kme2 pS T G G K A P R K Q)
51 | 0.0405 | ARTKQTARKSTGGKAPRKQ (A Rme2s T Kac Q T A Rme2s Kac S T G G K A P R K Q)
52 | 0.0104 | SGRGKQGGK(Ac)ARAK(Ac)AKSRSS
53 | 0.00161 | ARTKQTARKSTGGKAPRKQ (A Rme2s T Kme1 Q T A Rme2s Kme3 S T G G K A P R K Q)
54 | 0.29 | SGRGKGGKGLGKGGAKRHR (S G Rme2a G Kac G G Kac G L G Kac G G A K R H R)
55 | 0 | A[Arg(Me2s)]T[Lys(Me2)]QTAR[Lys(Me3)]STGGKAPRKQ
56 | 0 | PRKQLATKAARK[pS]APATGG [H3 16-35]
57 | 0.0217 | ARTKQTARKSTGGKAPRKQ (A R T Kme1 Q T A Rme2a Kac S T G G K A P R K Q)
58 | 0 | RKSAPATGGVKKPHRYRPG (R K S A P A T G G V Kme1 K P H R Y R P G) [H3 26-45]
59 | 1 | B1

Row | binding score | Binder
60 | 0.18 | SGRGKGGKGLGKGGAKRHR (S G R G K G G Kac G L G Kac G G A K R H R)
61 | 0.00394 | ARTKQTA[Arg(Me2s)][Lys(Me)][pS]TGGKAPRKQ
62 | 0 | B2
63 | 0.126 | SGRGKGGKGLGKGGAKRHR (pS G Rme2s G Kac G G Kac G L G K G G A K R H R)
64 | 0.00108 | SGRGKGGKGLGKGGAKRHR (pS G R G Kac G G K G L G K G G A K R H R)
65 | 0.0534 | SGRGKGGKGLGKGGAKRHR (S G R G K G G Kac G L G K G G A Kac R H R)
66 | 0.00681 | A[Arg(Me2a)]TK(Ac)QTA[Arg(Me2s)][Lys(Me3)]STGGKAPRKQ
67 | 0.00161 | A[Arg(Me2s)]TK(Ac)QTA[Arg(Me2a)][Lys(Me)]STGGKAPRKQ
68 | 0 | [pS]GRGK(Ac)QGGKARAK(Ac)AKSRSS
69 | 0.0518 | ARTKQTARKSTGGKAPRKQ (A Rme2a T Kac Q T A Rme2s Kac S T G G K A P R K Q)
70 | 0.00412 | PDPAK(Ac)SAPAPKKG[pS]KKAVT
71 | 0.0172 | A[Arg(Me2s)]TK(Ac)QTARKSTGGKAPRKQ
72 | 0.0124 | ARTKQTARKSTGGKAPRKQ (A Rme2a T Kme1 Q T A Rme2a Kac S T G G K A P R K Q)
73 | 0 | ARTKQTARKSTGGKAPRKQ (A R T K Q T A R Kme3 S pT G G K A P R K Q)
74 | 0 | ARTKQTARKSTGGKAPRKQ (A Rme2a T Kme2 Q T A R Kme2 S T G G K A P R K Q)
75 | 0 | A[Arg(Me2s)]TK(Me)QTARKSTGGKAPRKQ
76 | 0.0321 | AR[pT]K(Ac)QTARKSTGGKAPRKQ
77 | 0.00108 | ARTKQTARKSTGGK(Ac)APRKQ
78 | 0.00663 | ARTKQTA[Arg(Me2a)]K(Ac)[pS][pT]GGKAPRKQ
